From patent US20250236878A1 (priority 2019, published 2025)

Key:
[1] = tested on: Pseudomonas syringae pv. actinidiae (PSA-V); assay type: in vivo; conditions: at 6, 16 and 23 DAI; P<0.1
[2] = tested on: Citrus trees infected with CLas; design: species or system Citrus sinesis; conditions: in vivo
[3] = tested on: Citrus trees infected with CLas; assay type: in vivo, Citrus x paradisi; Citrus sinesis; conditions: average of 'Ruby Red' and 'Valencia'
Description: Treatments as previously described in Example 3; β-1,3-Endoglucanase from barley SEQ ID NO: 731 (Treatment 1) and Bt.4Q7Flg22 from Bacillus thurigiensis SEQ ID NO: 226 (Treatment 5) increased fruit yield (kg/tree) as described in Table 56. Fruit quality, and juice quality of ‘Valencia’ oranges are described in Table 57.
For direct comparison of the treatment results between grapefruit (‘Ruby Red’) and orange (‘Valencia’) are referenced in Table 56 above.

[4] = tested on: Citrus trees infected with Candidatus Liberibacter asiaticus; assay type: in vivo, Citrus x paradisi; conditions: […]; trunk injection
[5] = tested on: Citrus trees infected with CLas; assay: Recovery composition trunk injection: 'Valencia' orange fruit yield (Examples 3, 19); assay type: in vivo, Citrus sinesis; conditions: 'Valencia' orange; trunk injection
[6] = tested on: HLB-infected citrus trees; assay: Citrus trials of Examples 20-24: fruit yield, size, count and drop, average over orange and grapefruit trials; assay type: in vivo, Citrus sinesis; Citrus paradisi; conditions: trunk injection (Table 64)
Protocol: All fruit with a diameter greater than or equal to 1.6 inches (40 mm) were hand-picked and collected for each tree. The total “Fruit Weight” (in kilograms) per individual tree was measured and recorded. Trees with total fruit weights less than or greater than 2 standard deviations (2STDEV) from the trial mean were considered to be outliers and removed from the dataset. Fruit size was assessed as the “Average Weight per Fruit” in grams (weight of 20 random fruit per tree, divided by 20) and “Average Fruit Diameter” in millimeters, as described in Example 1. The “Average Fruit Count” per tree was assessed as the total “Fruit Weight” divided by “Average Weight per Fruit”. “Fruit Drop” was assessed as for Example 1. Fruit quality was assessed as for Example 2, with the exception that one set of fruit consisted for 15 total fruit, each corresponding to a sampling of 3 fruit from 5 trees of the same experimental treatment block. Each set of 15 fruit were weighed (gram; g) and then juiced together. Average yield, % fruit drop, fruit size, and juice quality for each of the tested compositions are described in Examples 20-24.

[7] = tested on: corn hybrids Beck's 6127 BHMF and 6127 DVMF; conditions: in vivo

B1: Serine Protease 2: serine protease 2 cloned from Bacillus subtilis, four substitutions relative to SEQ ID NO: 722 (protein, listed as Bacillus subtilis)
chain: SSKTSADLEKAEVFGDIDMTTSKKTTVIVELKEKSLAEAKEAGESQSKSKLKTARTQAKNKAIKAVKNGKVNREYEQVFSGFSMKLPANEIPKLLAVKDVKAVYPNVTYKTDNMKDKDVTISEDAVSPQMDDSAPYIGANDAWDLGYTGKGIKVAIIDTGVEYNHPDLKKNFGQYKGYDFVDNDYDPKETPTGDPRGEATDHGTHVAGTVAANGTIKGVAPDATLLAYRVLGPGGSGTTENVIAGVERAVQDGADVMNLSLGNSLNNPDWATSTALDWAMSEGVVAVTSNGNSGPNGWTVGSPGTSREAISVGATQLPLDEYAVTFGSYSSAKVMGYNKEDDVKALNNKEVELVEAGIGEAKDFEGKDLTGKVAVVKRGSIAFVDKADNAKKAGAIGMVVYNNLSGEIEANVPGMSVPTIKLSLEDGEKLVSALKAGETKTTFKLTVSKALGEQVADFSSRGPVMDTWMIKPDISAPGVNIVSTIPTHDPDHPYGYGSKQGTSMASPHIAGAVAVIKQAKPKWSVEQIKAAIMNTAVTLKDSDGEVYPHNAQGAGSARIMNAIKADSLVSPGSCSYGTFLKENGNETKNETFTIENQSSIRKSYTLEYSFNGSGISTSGTSRVVIPAHQTGKATARVKVNTKKTKAGTYEGTVIVREGGKTVAKVPTLLIVKEPDYPRVTSVSVSEGSVQGTYQIETYLPAGAEELAFLVYDSNLDFAGQAGIYKNQDKGYQYFDWDGTINGGTKLPAGEYYLLAYAANKGKSSQVLTEEPFTVE
- PSA-V leaf spot symptoms in comparison to the untreated control [1]: significantly reduced

B2: B-1,3-Endoglucanase from Barley (SEQ ID NO: 731) (protein)
chain: GVCYGVIGNNLPSRSDVVQLYRSKGINGMRIYFADGQALSALRNSGIGLILDIGNDQLANIAASTSNAASWVQNNVRPYYPAVNIKYIAAGNEVQGGATQSILPAMRNLNAALSAAGLGAIKVSTSIRFDEVANSFPPSAGVFKNAYMTDVARLLASTGAPLLANVYPYFAYRDNPGSISLNYATFQPGTTVRDQNNGLTYTSLFDAMVDAVYAALEKAGAPAVKVVVSESGWPSAGGFAASAGNARTYNQGLINHVGGGTPKKREALETYIFAMFNENQKTGDATERSFGLFNPDKSPAYNIQF
modifications: Hordeum vulgare
- Average Fruit Diameter (Relative to Untreated) [2]: (104%)
- Average Fruit Diameter (mm) [2]: 62.76 mm
- Brix:CA Ratio [2]: 12.01
- Brix:CA Ratio (Relative to Untreated) [2]: (+0.76)
- Average Yield (Relative to Untreated), Average of 2 sites [3]: (124%)
- Average Yield (Relative to Untreated) [4]: (112%)
- Average Yield (kg per tree) [4]: 38.7 kg per tree
- Average Yield (Relative to Untreated) [5]: (136%)
- Average Yield (kg per tree) [5]: 54.8 kg per tree

B3: Amylase from Bacillus subtilis 168: starch-degrading Amylase, trunk-injected at 92 U per tree (protein, UniProt P00691 42-659, looked up)
Alpha-amylase: LTAPSIKSGTILHAWNWSFNTLKHNMKDIHDAGYTAIQTSPINQVKEGNQGDKSMSNWYWLYQPTSYQIGNRYLGTEQEFKEMCAAAEEYGIKVIVDAVINHTTSDYAAISNEVKSIPNWTHGNTQIKNWSDRWDVTQNSLLGLYDWNTQNTQVQSYLKRFLDRALNDGADGFRFDAAKHIELPDDGSYGSQFWPNITNTSAEFQYGEILQDSASRDAAYANYMDVTASNYGHSIRSALKNRNLGVSNISHYASDVSADKLVTWVESHDTYANDDEESTWMSDDDIRLGWAVIASRSGSTPLFFSRPEGGGNGVRFPGKSQIGDRGSALFEDQAITAVNRFHNVMAGQPEELSNPNGNNQIFMNQRGSHGVVLANAGSSSVSINTATKLPDGRYDNKAGAGSFQVNDGKLTGTINARSVAVLYPDDIAKAPHVFLENYKTGVTHSFNDQLTITLRADANTTKAVYQINNGPETAFKDGDQFTIGKGDPFGKTYTIMLKGTNSDGVTRTEKYSFVKRDPASAKTIGYQNPNHWSQVNAYIYKHDGSRVIELTGSWPGKPMTKNADGIYTLTLPADTDTTNAKVIFNNGSAQVPGQNQPGFDYVLNGLYNDSGLSGSLPH
- average increase in fruit weight relative to control [6]: 5%

B4: ACC deaminase: 1-aminocyclopropane-1-carboxylate deaminase polypeptide with two substitutions relative to wild type (protein, listed as Bacillus thuringiensis)
chain: MNLAKFPRKKYTESYTPIEKLNNFSEALGGPTIYFKRDDLLGLTAGGNKTRKLEFLVADAQEKGADTLITAGGIQSNHCRLTLAAAVKEKMKCILVLEEGLEPEEKRDFNGNYFLYHLLGAENVIVVPNGADLMEEMNKVAKEVSEKGSTPYVIPVGGSNPTGAMGYVACAQEIMAQSFEQGIDFSSVVCVSGSGGMHAGLITGFSGTQSHIPVIGINVSRGKAEQEEKVAKLVDETSAHVGIPNFISRDAVTCFDEYVGPGYALPTPEMVEAVQLLAKTEGILLDPVYEGKAVAGLIDLIRKGKFNKEDNILFVHLGGSPALYANTSLFA
- average yield benefit over the control corn plants [7]: +7.16 flu/Ac
